The source of these data is paper PMC3690555 (Biochemistry, 2009).

For data set [1], the target named is D3A-NiSOD (Streptomyces coelicolor). Nature of the data set: crystal structure.
Data set [2] has the same target. Nature of the data set: SEC + native MS.
The target in data set [3] is Y9F-NiSOD (Streptomyces coelicolor). Kind of data set: crystal structure.
Data set [4] has the same target. Nature of the data set: SEC + native MS.
Data set [5] addresses Y9FY62F-NiSOD (Streptomyces coelicolor). Nature of the data set: SEC + native MS.
In data set [6] the target is Y62F-NiSOD (Streptomyces coelicolor). Kind of data set: SEC + native MS.
The data set “SEC + native MS” concerns the molecule itself. Nature of the data set: SEC + native MS.

Take D3A-NiSOD (enzyme): the stoichiometry N in data set [1] and in data set [2] was 6 throughout.

As for Y9F-NiSOD (enzyme), the stoichiometry N in data set [3] and in data set [4] was 6 each time.

Regarding Y9FY62F-NiSOD (enzyme), the stoichiometry N in data set [5] was 6.

Consider Y62F-NiSOD (enzyme), for which, in data set [6], the stoichiometry N came to 6.

B1: WT-NiSOD, recombinant nickel-dependent superoxide dismutase from Streptomyces coelicolor (enzyme, UniProt P80735 15-131, looked up)
chain: HCDLPCGVYDPAQARIEAESVKAVQEKMAGNDDPHFQTRATVIKEQRAELAKHHVSVLWSDYFKPPHFEKYPELHQLVNDTLKALSAAKGSKDPATGQKALDYIAQIDKIFWETKKA
B1: the “stoichiometry N” value in the data set “SEC + native MS” is 6.
